{
  "source": "paper PMC11761706",
  "target": "T1, Loz1AZZ (Schizosaccharomyces pombe, UniProt Q9UTA1 426-522)",
  "T1 sequence": "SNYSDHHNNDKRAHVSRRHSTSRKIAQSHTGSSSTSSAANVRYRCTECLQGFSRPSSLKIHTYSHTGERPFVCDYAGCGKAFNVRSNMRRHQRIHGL",
  "experiment": "NMR",
  "data": [
    {"binder": "LRE DNA 14 bp (dsDNA) DNA 1: GCGACGATCATTGG DNA 2: CCAATGATCGTCGC", "values": [
      {"measurement": "binding result", "value": "binds"}
    ]}
  ]
}
